Target: human plasma-derived Factor IXa (human) (UniProt P00740)
Experiment: cell-based or functional assay

human plasma-derived Factor IXa (human), sequence (P00740 47-191, chain 1 of 2): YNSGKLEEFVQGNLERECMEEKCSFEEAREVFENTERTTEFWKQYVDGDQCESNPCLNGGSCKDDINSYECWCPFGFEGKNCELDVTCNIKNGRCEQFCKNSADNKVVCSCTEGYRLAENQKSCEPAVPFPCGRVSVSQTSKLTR
human plasma-derived Factor IXa (human), sequence (P00740 227-461, chain 2 of 2): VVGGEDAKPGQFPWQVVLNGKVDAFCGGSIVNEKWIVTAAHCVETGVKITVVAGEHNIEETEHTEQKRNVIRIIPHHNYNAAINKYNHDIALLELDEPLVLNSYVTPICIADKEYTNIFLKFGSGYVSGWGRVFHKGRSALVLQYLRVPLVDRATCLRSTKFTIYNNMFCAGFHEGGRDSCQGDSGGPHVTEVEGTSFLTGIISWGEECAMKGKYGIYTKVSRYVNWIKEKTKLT

Stimulation Index, FXa generation assay, 3260 nM OA antibody: < 10 fold
B1: one-armed (OA) 224F3 antibody (antibody, from another filing, V domains shown)
VH: QVQMQQSGAELVKPGASVKLSCKASGYTFTSQDINWVRQRPEQGLEWIGWIFPGDGSTKYNEKLKGKATLTTDKSSSTAFMQLSRLTSEDSAVYFCARSAYYRYDGSYYYAMDYWGQGTSVTVSS
VL: QIVLTQSPAIMSASLGEEITLTCSASSSVSYMLWYQQKSGTSPKLLIYTTSNLASGVPSRFSGTGSGTFYSLTISSVEAEDAADYYCHQWSSYPRTFGGGTKLEIKR

Reference: patent publication US20260193376A1
